“Also recorded” adds a separate entry of the source.
Columns and labels:
[1] = Size-exclusion chromatography (SEC, SEC-MALS); type: physicochemical; conditions: oligomeric state
Text: (§1) The sequences of these designs are not related to those of proteins with known structure (BLAST E-values ranged from 0.11 to 1.9 against the non-redundant protein database) and fold into the designed structure in silico (FIG. 2A). Synthetic genes encoding the designs were expressed in E. coli. […] The crystal structure of BB1 solved at 1.6 Å resolution was very close to the design model (within 1.4 Å RMSD over 99 residues of the 109 residues, FIG. 2F-G, deviations from the design are shown in FIG. 10) and had no close structural homolog in the PDB (highest TM-score <0.8). Essentially all of the key features of the design model are found in the crystal structure. The cross-section of the structure resembles the square cavity of the design model, which is not observed in any existing natural β-barrel crystal structures (FIG. 21), and is shaped by the designed glycine kinks. All 7 designed turns and β-bulges are correctly recapitulated in the crystal structure (FIG. 2H,J), along with the 3-10 helix and tryptophan corner (FIG. 2K).
(§2) Protein expression and purification. Genes encoding the nonfunctional β-barrel designs (41 from parametric design and 4 from fragment-base design) were synthesized and cloned into the pET-29 vector (GenScript, Inc). Plasmids were then transformed into BL21*(DE3) E. coli strain (NEB, Inc). […]

[2] = parameters: species or system E. coli
Text: as §1, §2

[3] = Circular dichroism, thermal and GuHCl denaturation; type: physicochemical
Procedure: Circular dichroism (CD). Purified protein samples were prepared at 0.5 mg/ml in 20 mM Tris buffer (150 mM NaCl, pH8.0) or PBS buffer (25 mM phosphate, 150 mM NaCl, pH7.4). Wavelength scans from 195 nm to 260 nm were recorded at 25 degrees Celsius, 75 degrees Celsius, 95 degrees Celsius and cooling back to 25 degrees Celsius. Thermal denaturation was monitored at 220 nm or 226 nm from 25 degrees Celsius to 95 degrees Celsius. Near-UV wavelength scan from 240 nm to 320 nm and tryptophan fluorescence emission were recorded in the absence and presence of 5M guanidinium chloride (GuHCl). Chemical denaturation in GuHCl was monitored by both tryptophan fluorescence and near-UV CD signal at 285 nm. The concentration of the GuHCl stock solution was measured with a refractometer (Spectronic Instruments, Inc). Far-UV CD experiments were performed on an AVIV model 420 CD spectrometer (Aviv Biomedical, Inc). Near-UV CD and tryptophan fluorescence experiments were performed on a Jasco J-1500 CD spectrometer (Jasco, Inc). Protein concentrations were determined by 280 nm absorbance with a NanoDrop™spectrophotometer (ThermoScientific, Inc). Melting temperatures were estimated by smoothing the sparse data with a Savitsky-Golay filter of order 3 and approximating the smoothed data with a cubic spline to compute derivatives. Reported Tm values are the inflection points of the melting curves.

B1: BB1: SEQ ID NO 1; nonfunctional de novo β-barrel design, stable monomer (protein)
chain: MVDAAQYFPGTWEFRFRSSDGKEYRGTVEMQPRTPTEIEIRFKGQSSDGRPVEGRGSIEVRSPYEYRFEMQSSDGARWEGTLQVRSPDSVEVRFKSSDGREYSGEFRRQE
modifications: (1)..(1) optionally absent
SEC [1]: monomer
Solubility [2]: yes
β CD spectrum [3]: yes
Thermal stability ([3]; CD): unchanged at 95 °C; also recorded: stable at 95 degree Celsius; also recorded: does not temperature denature
Cooperative unfolding transition in guanidine ([3]; near UV CD signal and tryptophan fluorescence): 2.5 M

Reference: patent US20210047373A1, “BETA BARREL POLYPEPTIDES AND METHODS FOR THEIR USE” (UNIVERSITY OF WASHINGTON, priority 2018, published 2021)
